Literature values in publication PMC3575173.

Molecular target: TAMRA-TRTK-12 (UniProt P52907)

Kd: 1190 nM
Substance: S100B (from UniProt P04271)
